Results as given in US20200140517A1 (CASE WESTERN RESERVE UNIVERSITY, published 2020).
Where “and” joins values, the source holds several entries; their conditions need not be identical. Equal entries are not always repeated. Positions of bridges follow the written chain, without caps; N, C: chain ends. No end group written: not given here.

Assays:
[1] = substrate: B isoform of the insulin receptor (UniProt P06213); test: receptor binding affinity, method not described; reference: wild type human insulin
[2] = molecular target: T1, A isoform of the insulin receptor (UniProt P06213-2 28-1370, limits assumed); test: receptor binding affinity, method not described; reference: human insulin; data not shown
T1 construct: also called IR-A

- fold reduction of affinity relative to wild type human insulin [1]: 5 fold and 10 fold
- affinity relative to human insulin [2]: 120 percent
B1: 4SS 81-04 (SCI-2; 57-mer single-chain insulin analogue with fourth disulfide bridge, cystine B4-A10) (ligand)
chain: FVNCHLCGSHLVEALYLVCGERGFFYTDPTEEGPRRGIVEQCCHSCCSLEQLENYCN
modifications: disulfide 4-46; also: three canonical disulfides, pairing not given here
notes: Single polypeptide chain (B domain, 6-residue C domain EEGPRR, A domain), expressed in Pichia pastoris; Cys at B4 and A10 form a fourth disulfide bridge beside the three canonical ones; also called 57mer SCI-2
